Where two headings read alike, the source gives them in different places.
T1: BCMA-his protein (Cat #: BCA-H522y, ACRO) (human, UniProt Q02223 1-54)
T1 construct: Bought recombinant protein; the construct is most likely only a soluble part of it; also called BCMA protein; human BCMA
T1 sequence: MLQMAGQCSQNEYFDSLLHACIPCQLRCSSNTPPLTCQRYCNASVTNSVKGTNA

T2: human BCMA on HEK293A/human BCMA cells (human, UniProt Q02223 1-184)
T2 sequence: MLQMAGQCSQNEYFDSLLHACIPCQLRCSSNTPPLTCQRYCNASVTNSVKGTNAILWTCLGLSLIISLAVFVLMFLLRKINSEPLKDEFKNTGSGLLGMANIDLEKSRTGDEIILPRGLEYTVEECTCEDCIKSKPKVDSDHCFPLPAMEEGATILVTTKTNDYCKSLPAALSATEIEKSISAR

T3: mouse BCMA on HEK293A/mouse BCMA cells (mouse, UniProt O88472 1-185)
T3 sequence: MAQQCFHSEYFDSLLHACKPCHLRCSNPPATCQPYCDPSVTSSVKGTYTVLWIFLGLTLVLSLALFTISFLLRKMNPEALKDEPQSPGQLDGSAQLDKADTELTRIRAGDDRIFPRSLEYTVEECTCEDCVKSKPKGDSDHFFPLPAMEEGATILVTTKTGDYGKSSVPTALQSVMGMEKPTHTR


Assays:
[1] = molecular target: T4, CD3D&E protein (Cat #: CT038-H2508H, Sino Biological) (human, UniProt P04234 22-105; P07766 23-126); assay: ELISA, coated CD3D&E
T4 construct: Bought complex of the delta and epsilon chains; also called CD3D&E complex; human CD3D&E complex
T4 sequence (P04234 22-105, form in doubt, chain 1 of 2): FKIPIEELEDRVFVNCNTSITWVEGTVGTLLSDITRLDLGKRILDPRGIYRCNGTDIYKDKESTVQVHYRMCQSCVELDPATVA
T4 sequence (P07766 23-126, form in doubt, chain 2 of 2): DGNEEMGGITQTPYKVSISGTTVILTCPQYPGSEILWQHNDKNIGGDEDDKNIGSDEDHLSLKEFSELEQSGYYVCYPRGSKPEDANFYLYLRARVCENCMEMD

CD3 on Jurkat cells [2] = molecular target: T5, CD3 on Jurkat cells (UniProt P04234 22-171; P07766 23-207); assay: flow cytometry on Jurkat cells
T5 construct: whole, on cells
T5 sequence (P04234 22-171, chain 1 of 2): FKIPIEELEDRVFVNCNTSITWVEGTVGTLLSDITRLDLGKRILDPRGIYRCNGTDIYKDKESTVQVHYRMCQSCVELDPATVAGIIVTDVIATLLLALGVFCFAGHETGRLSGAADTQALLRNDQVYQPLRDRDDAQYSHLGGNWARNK
T5 sequence (P07766 23-207, chain 2 of 2): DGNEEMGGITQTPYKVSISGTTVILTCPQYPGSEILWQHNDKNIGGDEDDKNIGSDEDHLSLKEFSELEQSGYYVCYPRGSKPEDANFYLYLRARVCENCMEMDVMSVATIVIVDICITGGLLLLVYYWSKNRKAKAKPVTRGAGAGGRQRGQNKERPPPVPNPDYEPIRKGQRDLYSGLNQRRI
Protocol: (§1) Jurkat cells were collected, centrifuged at 300 g for 5 min, and suspended in PBS. After another centrifugation, the cells were suspended in 2% FBS-PBS at the cell density of 3×10⁶/ml, and […] were plated onto a U-bottom plate. The plate was added with 50 μl serially diluted anti-CD3 antibodies of the disclosure in 2% FBS-PBS (4-fold dilution, starting at 20 μg/ml), and incubated at room temperature for 1 h. The plate was washed with 2% FBS-PBS for three times, added with 50 μl PE-labeled goat-anti-human IgG (H+L) (1: 500), and incubated at room temperature for 45 min. The plate was washed with 2% FBS-PBS again for three times, and added with 150 μl 2% FBS-PBS to suspend the cells. The plate was measured for cell fluorescence using a cytometry, and the data was processed with FlowJo and analyzed with GraphPad.

[3] = molecular target: T6, CD3E protein (Cat #: 10977-H08S, Sino Biological) (UniProt P07766 23-126); assay: SPR (BIAcore 8K), CD3E coupled to the chip, antibody as analyte
T6 construct: also called CD3ε
T6 sequence (P07766 23-126 limits assumed, stated change not applied): as the sequence (P07766 23-126, form in doubt, chain 2 of 2) above
Protocol: For the test regarding binding affinity to CD3E (Cat #: 10977-H08S, Sino Biological), the CD3E molecules were coupled to a CMS biosensor chip, where about 200 RU of the molecules bound to the chip. The anti-CD3 antibodies of the disclosure diluted with the HBS-EP buffer (Cat #: BR-1006-69, GE Life Sciences) at 120 μg/ml were respectively flowed through the chip. Chip regeneration was performed with pH1.5 Gly-HCl.

[4] = molecular target: T4, CD3D&E protein (Cat #: CT038-H2508H, …); assay: SPR (BIAcore 8K), antibody captured by anti-human Fc, CD3D&E as analyte
Protocol: Briefly, the mouse anti-human Fc antibodies were coupled to a CM5 biosensor chip. The anti-CD3 antibodies of the disclosure in the HBS-EP buffer (Cat #: BR-1006-69, GE Life Sciences) at the concentration of 1 μg/ml was flowed through the chip, where about 100 RU of the antibodies were captured by the mouse anti-human Fc antibodies. Serially diluted CD3D&E molecules (Cat #: CT038-H2508H, Sino Biological) in the HBS-EP buffer (Cat #: BR-1006-69, GE Life Sciences) (2-fold dilution starting at 20 μg/ml) were respectively flowed through the chip. Chip regeneration was performed with 3 M MgCl₂.

[5] = molecular target: T4, CD3D&E protein (Cat #: CT038-H2508H, …); assay: ELISA, coated CD3D&E; remark: listed apart in the source
Protocol: (§2) The purified bispecific antibodies were tested for their binding capability to recombinant human CD3 and human BCMA proteins by ELISA, following the protocols in Example 4 and Example 9.

[6] = molecular target: T1, BCMA-his protein (Cat #: BCA-H522y, …); assay: ELISA, coated BCMA protein
Protocol: Briefly, an ELISA plate was coated with 100 μl 1 μg/ml BCMA protein (Cat #: BCA-H522y, ACRO) in PBS overnight at 4° C. Then, the plate was blocked with 250 μl PBST with 4% skimmed milk at room temperature for 1 h. […] The negative control well was added with PBST instead of the antibody. The plate was washed with PBST for three times, added with 100 μl HRP conjugated goat anti-human IgG (1:7000, Cat #: 31413, thermofisher), and incubated at room temperature for 1 h. The plate was washed again with PBST for four times, added with 100 μl freshly prepared TMB (Cat #: 555214, BD, USA), and left still for color development, which was terminated with 50 μl 10% H₂SO₄. The absorbance was read at 450 nm, and the data was processed and analyzed using GraphPad.
as §2

CD3 on Jurkat cells [7] = molecular target: T5, CD3 on Jurkat cells; assay: flow cytometry on Jurkat cells; remark: listed apart in the source
Protocol: as §1
Following the protocol of Example 11, the bispecific antibodies of the disclosure were tested for their binding capability to Jurkat cells.

[8] = molecular target: T1, BCMA-his protein (Cat #: BCA-H522y, …); assay: SPR (BIAcore 8K), protocol of Example 5
Protocol: (§3) Following the protocols in Example 5 and Example 10, the bispecific antibodies of the disclosure were tested for their binding affinity to CD3D&E and human BCMA.

[9] = molecular target: T4, CD3D&E protein (Cat #: CT038-H2508H, …); assay: SPR (BIAcore 8K), protocol of Example 10
Protocol: as §3

[10] = molecular target: T2, human BCMA on HEK293A/human BCMA cells; assay: flow cytometry on HEK293A/human BCMA cells
Protocol: (§4) The anti-BCMA antibody's binding capability to cell surface BCMAs was tested by FACS. Briefly, HEK293A/human BCMA cells, HEK293A/monkey BCMA cells and HEK293A/mouse BCMA cells, as generated in Example 1, were collected, digested with trypsin, and subjected to centrifugation at 300 g for 5 min. The cells were suspended in PBS, and subjected to centrifugation again. The cells were re-suspended in PBS with 2% FBS at the cell density at 4×10⁶/ml, and 50 μl cells were seeded onto a U-bottom plate. […] The plate was washed with 2% FBS-PBS for three times, added with 50 μl PE-labeled goat-anti-human IgG (H+L) (1: 500), and incubated at room temperature for 45 min. The plate was washed with 2% FBS-PBS again for three times, and added with 150 μl 2% FBS-PBS to suspend the cells. The plate was measured for cell fluorescence using a cytometry, and the data was processed with FlowJo and analyzed with GraphPad.
(§5) Following the protocol of Example 6, the bispecific antibodies of the disclosure were tested for their binding capability to the HEK293A/human BCMA cells, HEK293A/monkey BCMA cells, and HEK293A/mouse BCMA cells as generated in Example 1.

[11] = molecular target: monkey BCMA on HEK293A/monkey BCMA cells (monkey, UniProt Q02223 1-184 (human entry)); assay: flow cytometry on HEK293A/monkey BCMA cells
Chain of monkey BCMA on HEK293A/monkey BCMA cells (Q02223 other isoform, or with tags, fused parts or gaps): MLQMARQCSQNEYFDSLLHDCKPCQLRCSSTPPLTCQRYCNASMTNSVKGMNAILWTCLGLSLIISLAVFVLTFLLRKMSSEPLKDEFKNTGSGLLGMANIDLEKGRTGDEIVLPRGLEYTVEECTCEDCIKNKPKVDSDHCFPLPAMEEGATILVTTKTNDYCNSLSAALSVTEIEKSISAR
Protocol: as §4, §5

[12] = molecular target: T3, mouse BCMA on HEK293A/mouse BCMA cells; assay: flow cytometry on HEK293A/mouse BCMA cells [continued) E]
Protocol: as §4, §5

Binder | EC50 [1] [µg/mL] | EC50 (CD3 on Jurkat cells [2]) [µg/mL] | binding result [3] | Kd [4] [nM] | EC50 [5] [µg/mL] | EC50 [6] [µg/mL] | EC50 (CD3 on Jurkat cells [7]) [µg/mL] | EC50 (read off the curve) (CD3 on Jurkat cells [7]) [µg/mL] | Kd [8] [nM] | Kd [9] [nM] | EC50 [10] [µg/mL] | EC50 [11] [µg/mL] | binding result [12]
anti-CD3D&E antibody D1E9, full-length human IgG1 (L234A/L235A/N297A)/kappa (antibody, V domains shown) VH: EVQLVESGGGLVQPGRSLRLSCAASGFTFDDFAMHWVRQAPGKGLEWVSGITWNSGSVGYADSVKGRFTISRDNAKKSLYLQMNSLRAEDTALYYCAKDRSGYGHYYYGMDVWGQGTTVTVAS VL: EIVMTQSPATLSVSPGERATLSCRASTSVSHNVAWYQQKPGQAPRLLIYGASTKVTGIPARFSGSGSGTEFTLTISSLQSEDFAVYYCQHYINWPLTFGGGTKVEIKR | 0.0879 | 0.0837 | no binding (tested: 120 µg/ml) | 120 | – | – | – | – | – | – | – | – | –
anti-CD3D&E antibody D12A4, full-length human IgG1 (L234A/L235A/N297A)/kappa (antibody, V domains shown) VH: EVQLVESGGGLVQPGRSLRLSCAASGFTFGDYAMHWVRQAPGKGLEWVSGISWNHGHIGYADSVKGRFTISRDNAKKSLYLQMNSLRAEDTALYYCAKDNSGYGHYYYGMDVWGQGTTVTVAS VL: EIVMTQSPATLSVSPGERATLSCRASRSVSRNLAWYQQKPGQAPRLLIYGASTKPTGIPARFSGSGSGTEFTLTISSLQSEDFAVYYCQHYTNWPLRFGGGTKVEIKR | 0.0226 | 0.11 | no binding (tested: 120 µg/ml) | 357 | – | – | – | – | – | – | – | – | –
anti-CD3/BCMA bispecific antibody MBS305-M-KIH (bispecific antibody, human IgG1, kappa, L234A L235A, N297A) heavy 1: QVQLVQSGAEVKKPGASVKVSCKASGYTFTNHIIHWVRQAPGQGLEWMGYINPYPGYHGYNDKFSGRATMTSDTSTSTVYMELSSLRSEDTAVYYCARDGYYRDQDVLDYWGQGTLVTVSSASTKGPSVFPLAPSSKSTSGGTAALGCLVKDYFPEPVTVSWNSGALTSGVHTFPAVLQSSGLYSLSSVVTVPSSSLGTQTYICNVNHKPSNTKVDKKVEPKSCDKTHTCPPCPAPEAAGGPSVFLFPPKPKDTLMISRTPEVTCVVVDVSHEDPEVKFNWYVDGVEVHNAKTKPREEQYASTYRVVSVLTVLHQDWLNGKEYKCKVSNKALPAPIEKTISKAKGQPREPQVYTLPPSREEMTKNQVSLSCAVKGFYPSDIAVEWESNGQPENNYKTTPPVLDSDGSFFLVSKLTVDKSRWQQGNVFSCSVMHEALHNHYTQKSLSLSPGK light 1: not shown heavy 2: QVQLVQSGAEVKKPGASVKVSCKASGYTFTNHIIHWVRQAPGQGLEWMGYINPYPGYHGYNDKFSGRATMTSDTSTSTVYMELSSLRSEDTAVYYCARDGYYRDQDVLDYWGQGTLVTVSSGGGGSGGGGSGGGGSGGGGSDIQMTQSPSSLSASVGDRVTITCKASQDISQYLNWYQQKPGKAPKLLIYYTSGLHPGVPSRFSGSGSGTDFTFTISSLEPEDEATYYCQQGYALPWTFGQGTKLTAKRGGGGSGGGGSGGGGSEVQLVESGGGLVQPGRSLRLSCAASGFTFDSYSMHWVRQAPGKGLEWVSGISWNSGSLGYADSVKGRFTISRDNAKKSLYLQMNSLRAEDTALYYCAKDRSGYGHYYYGMDVWGQGTTVTVASASTKGPSVFPLAPSSKSTSGGTAALGCLVKDYFPEPVTVSWNSGALTSGVHTFPAVLQSSGLYSLSSVVTVPSSSLGTQTYICNVNHKPSNTKVDKKVEPKSCDKTHTCPPCPAPEAAGGPSVFLFPPKPKDTLMISRTPEVTCVVVDVSHEDPEVKFNWYVDGVEVHNAKTKPREEQYASTYRVVSVLTVLHQDWLNGKEYKCKVSNKALPAPIEKTISKAKGQPREPQVYTLPPSREEMTKNQVSLWCLVKGFYPSDIAVEWESNGQPENNYKTTPPVLDSDGSFFLYSKLTVDKSRWQQGNVFSCSVMHEALHNHYTQKSLSLSPGK light 2: not shown | – | – | – | – | 0.089 | 0.0137 | 0.00106 | ~1 | 0.105 | 37.9 | 0.199 | 0.23 | no binding (tested: about 30000 ng/ml (LOG10 about 4.5))
